Consider two substances from patent US6617117.

The subject of one series is T1, human GST-SAPK4.
T1 sequence: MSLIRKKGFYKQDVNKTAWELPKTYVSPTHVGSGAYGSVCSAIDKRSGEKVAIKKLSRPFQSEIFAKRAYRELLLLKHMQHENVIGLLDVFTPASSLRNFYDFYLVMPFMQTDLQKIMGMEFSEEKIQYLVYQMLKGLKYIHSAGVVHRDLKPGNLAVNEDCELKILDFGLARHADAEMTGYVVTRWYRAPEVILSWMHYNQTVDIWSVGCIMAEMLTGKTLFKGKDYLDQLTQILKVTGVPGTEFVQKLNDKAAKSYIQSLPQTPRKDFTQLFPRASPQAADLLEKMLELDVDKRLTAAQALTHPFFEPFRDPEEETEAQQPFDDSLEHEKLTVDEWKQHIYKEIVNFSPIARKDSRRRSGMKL

For series [1], the target named is SAPK3 (untagged, transfected) (rat) (UniProt Q63538). Nature of the series: cell-based or functional assay.
In series [2] the target is c-myc epitope-tagged SAPK4 (human) (UniProt O15264). Nature of the series: cell-based or functional assay.

Chain of SAPK3 (untagged, transfected) (rat) (Q63538 whole entry): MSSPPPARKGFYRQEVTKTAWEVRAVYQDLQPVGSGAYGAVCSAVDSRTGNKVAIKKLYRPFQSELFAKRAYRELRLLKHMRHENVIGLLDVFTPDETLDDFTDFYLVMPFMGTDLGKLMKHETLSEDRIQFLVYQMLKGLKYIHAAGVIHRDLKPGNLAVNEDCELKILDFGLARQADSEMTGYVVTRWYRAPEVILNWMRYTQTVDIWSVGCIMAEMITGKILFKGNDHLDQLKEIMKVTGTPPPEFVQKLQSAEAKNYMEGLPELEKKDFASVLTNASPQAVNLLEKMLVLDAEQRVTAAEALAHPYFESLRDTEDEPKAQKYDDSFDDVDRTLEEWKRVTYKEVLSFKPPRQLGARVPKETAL

For SKK1 (MKK4), in the series on human GST-SAPK4, the “phosphorylation and activation of SAPK4 in vitro” value is “SAPK4 is phosphorylated and activated by SKK1 in vitro, but at a much slower rate than SAPK2a under identical conditions”.

On to “human SKK3 (transfected, pcDNA3.1) (from UniProt P52564 1-334) (enzyme)”, for which, in series [1], the SAPK3 activity (MBP phosphorylation) after cotransfection into COS cells was found to be 10 fold and the activation of transfected SAPK3 by osmotic shock in cells cotransfected with SKK3 stood at 30 fold. Also, the SAPK4 activity (MBP phosphorylation) after co-transfection into COS cells in series [2] came out at 12.5 fold.
